# Measured values reported in patent publication US5670340.
# What was measured:
# [1] = target: β-gal97S4DhCNP-22R3-2 fusion protein (Escherichia coli; human) [β-galactosidase: P00722]
# [2] = target: β-gal97S4DhCNP-22R5-2 fusion protein (Escherichia coli; human) [β-galactosidase: P00722]
# [3] = target: β-gal97S4DhCNP-22R5-3 fusion protein (Escherichia coli; human) [β-galactosidase: P00722]
# [4] = target: fusion protein encoded by pG97S4DhCT(G)R5 (β-gal97S4D - linker R5 - hCT(G)) (Escherichia coli; human) [β-galactosidase: P00722]
# [5] = target: fusion protein encoded by pG97S4DhCT(G)R4 (β-gal97S4D - linker R4 - hCT(G)) (Escherichia coli; human) [β-galactosidase: P00722]
substance,measurement,setting,value
V8 protease (from UniProt P0C1U8) (enzyme),release efficiency of human CNP-22 (HPLC),[1],99%
same,release efficiency of human CNP-22 (HPLC),[2],95%
same,release efficiency of human CNP-22 (HPLC),[3],92%
same,"cleavage efficiency (hCT(G) released, HPLC)",[4],7%
same,"cleavage efficiency (hCT(G) released, HPLC)",[5],97%
